Results published in PMC4865869.

Tests used:
[1] = biological target: GST-fused RasC (Dictyostelium) (UniProt P32253); assay: pull-down; GFP-FRB/Kin^TOR with active GST-fused GTPase (GppNHp-loaded or constitutively active mutant), 25 ug of each, 50 mM Tris-Cl, 150 mM NaCl, 5 mM MgCl2, 1 mM beta-mercaptoethanol, pH 7.5; GSH resin; washes with 500 mM NaCl; GFP and GST immunoblotting
[2] = biological target: constitutively active RasC mutant (RasC^CA, G62L) (Dictyostelium) (UniProt P32253); assay: as above
[3] = biological target: Rap1 pre-loaded with mGppNHp (GDI assay) (Dictyostelium) (UniProt P18613); assay: guanine nucleotide dissociation inhibition (GDI) assay; Rap1 or RasG pre-loaded with fluorescent mGppNHp, excess unlabeled GppNHp, with or without 1 uM RIP3^RBD; kobs of fluorescence decay; without effector kobs Rap1 5.0 x 10^-5 s^-1, RasG 5.9 x 10^-5 s^-1
UniProt P18613, sequence (P18613 whole entry): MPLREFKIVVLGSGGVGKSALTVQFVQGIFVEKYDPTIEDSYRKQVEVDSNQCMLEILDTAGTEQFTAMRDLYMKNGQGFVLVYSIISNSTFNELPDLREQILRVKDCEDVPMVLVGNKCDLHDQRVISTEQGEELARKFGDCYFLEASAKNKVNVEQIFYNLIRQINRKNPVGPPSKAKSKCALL

| binding efficiency (percent) [1] | binding efficiency (percent) [2] | kobs of mGppNHp dissociation from Rap1 with 1 uM RIP3^RBD [3] | Substance |
| --- | --- | --- | --- |
| 9% | 9% | – | GFP-fused TOR catalytic domain (FRB/Kin^TOR, aa 1820-2380) (from UniProt Q86C65 1820-2380) (domain or fragment) |
| – | – | 1e-07 s⁻¹ | RIP3^RBD (aa 511-838) (domain or fragment) |
